# Test results reported in patent publication US20210115133A1 (NGM BIOPHARMACEUTICALS, published 2021).
# T1: human beta klotho expressed on cells (human, UniProt Q86Z14 1-1044)
# T1 sequence: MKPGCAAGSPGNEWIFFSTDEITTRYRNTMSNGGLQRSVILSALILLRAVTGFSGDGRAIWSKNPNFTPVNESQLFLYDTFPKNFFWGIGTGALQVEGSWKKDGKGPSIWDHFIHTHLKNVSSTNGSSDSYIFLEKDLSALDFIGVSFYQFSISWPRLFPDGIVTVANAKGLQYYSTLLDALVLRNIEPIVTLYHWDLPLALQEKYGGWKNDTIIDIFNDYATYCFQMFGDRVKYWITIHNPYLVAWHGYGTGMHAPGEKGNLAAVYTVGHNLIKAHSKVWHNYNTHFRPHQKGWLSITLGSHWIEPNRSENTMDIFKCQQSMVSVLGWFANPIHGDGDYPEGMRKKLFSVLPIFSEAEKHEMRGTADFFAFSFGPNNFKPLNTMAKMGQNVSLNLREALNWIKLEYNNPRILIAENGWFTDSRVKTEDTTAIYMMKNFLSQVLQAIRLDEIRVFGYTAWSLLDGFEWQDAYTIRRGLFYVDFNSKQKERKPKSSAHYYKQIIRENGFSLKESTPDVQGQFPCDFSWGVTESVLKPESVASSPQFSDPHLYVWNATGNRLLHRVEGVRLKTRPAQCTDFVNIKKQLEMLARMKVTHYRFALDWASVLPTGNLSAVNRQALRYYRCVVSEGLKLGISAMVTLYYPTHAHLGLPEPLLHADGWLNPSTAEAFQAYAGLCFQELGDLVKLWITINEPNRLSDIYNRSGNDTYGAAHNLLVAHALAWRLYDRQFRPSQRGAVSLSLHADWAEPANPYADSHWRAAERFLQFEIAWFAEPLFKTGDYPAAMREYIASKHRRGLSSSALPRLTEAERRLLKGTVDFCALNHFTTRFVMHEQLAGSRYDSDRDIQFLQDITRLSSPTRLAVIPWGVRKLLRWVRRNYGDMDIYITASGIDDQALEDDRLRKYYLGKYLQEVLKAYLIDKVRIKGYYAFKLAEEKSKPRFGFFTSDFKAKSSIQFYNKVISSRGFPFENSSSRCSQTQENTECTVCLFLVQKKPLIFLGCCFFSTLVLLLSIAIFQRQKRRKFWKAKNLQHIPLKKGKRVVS
# Target: T1, human beta klotho expressed on cells
# Experiment: cell-based or functional assay
binder,measurement,value
"anti-beta klotho monoclonal antibody 3I13 (antibody, V domains shown, Murine monoclonal antibody from a hybridoma (captured by anti-mouse Fc); also called 3I13 - Alexa488) VH: QVQLQQSGPELVKPGASVKISCKTSGYTFTEYTMHWVKQSHGKSLEWIGSFNPDSGGTSYNQKFKGKATLTVDKSSSTAYMELRSLTSEDSAVYYCARDDGYSTRYWYFDVWGAGTTVTVSS VL: DIQMTQSPASLSASVGETVTITCGASENIYGALNWFQRKQGKSPQLLIYGATILADGMSSRFSGSGSGRQYSLKISSLHPDDVATYYCQNVLSTPYTFGGGTKLEIK",HEK293 huKLB/R1c reporter assay EC50 (Experiment - A),0.333 nM
same,HEK293 huKLB/R1c reporter assay EC50 (Experiment - B),1.99 nM
